Earlier results, collected in paper PMC2613885.
pKd: −log10 of the molar value.

Target: Robo1 (Homo sapiens) (UniProt Q9Y6N7)
Sequence (Q9Y6N7 26-897): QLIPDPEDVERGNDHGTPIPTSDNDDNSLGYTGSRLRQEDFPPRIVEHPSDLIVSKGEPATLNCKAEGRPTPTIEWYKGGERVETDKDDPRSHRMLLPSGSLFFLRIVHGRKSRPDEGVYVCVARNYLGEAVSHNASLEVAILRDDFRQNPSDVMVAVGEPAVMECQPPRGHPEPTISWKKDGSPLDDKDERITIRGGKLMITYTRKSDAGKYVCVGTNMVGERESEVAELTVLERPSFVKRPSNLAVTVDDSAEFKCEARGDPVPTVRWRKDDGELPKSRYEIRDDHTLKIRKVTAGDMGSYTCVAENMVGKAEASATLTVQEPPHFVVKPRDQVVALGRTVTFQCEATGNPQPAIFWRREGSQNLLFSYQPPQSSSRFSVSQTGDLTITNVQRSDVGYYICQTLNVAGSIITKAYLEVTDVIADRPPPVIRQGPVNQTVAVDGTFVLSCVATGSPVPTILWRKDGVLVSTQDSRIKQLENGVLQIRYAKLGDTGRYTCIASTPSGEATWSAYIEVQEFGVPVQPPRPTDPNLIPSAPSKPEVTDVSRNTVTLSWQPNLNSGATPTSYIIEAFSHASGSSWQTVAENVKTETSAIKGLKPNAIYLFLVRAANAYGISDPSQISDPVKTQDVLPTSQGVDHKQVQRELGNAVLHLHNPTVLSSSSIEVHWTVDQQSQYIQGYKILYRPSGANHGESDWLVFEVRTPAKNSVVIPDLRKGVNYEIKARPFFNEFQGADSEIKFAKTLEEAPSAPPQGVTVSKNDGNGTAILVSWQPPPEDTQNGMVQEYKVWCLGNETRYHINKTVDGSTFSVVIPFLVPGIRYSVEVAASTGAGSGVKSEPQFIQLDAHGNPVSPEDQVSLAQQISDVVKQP

Slit2, sequence (O94813 31-1529): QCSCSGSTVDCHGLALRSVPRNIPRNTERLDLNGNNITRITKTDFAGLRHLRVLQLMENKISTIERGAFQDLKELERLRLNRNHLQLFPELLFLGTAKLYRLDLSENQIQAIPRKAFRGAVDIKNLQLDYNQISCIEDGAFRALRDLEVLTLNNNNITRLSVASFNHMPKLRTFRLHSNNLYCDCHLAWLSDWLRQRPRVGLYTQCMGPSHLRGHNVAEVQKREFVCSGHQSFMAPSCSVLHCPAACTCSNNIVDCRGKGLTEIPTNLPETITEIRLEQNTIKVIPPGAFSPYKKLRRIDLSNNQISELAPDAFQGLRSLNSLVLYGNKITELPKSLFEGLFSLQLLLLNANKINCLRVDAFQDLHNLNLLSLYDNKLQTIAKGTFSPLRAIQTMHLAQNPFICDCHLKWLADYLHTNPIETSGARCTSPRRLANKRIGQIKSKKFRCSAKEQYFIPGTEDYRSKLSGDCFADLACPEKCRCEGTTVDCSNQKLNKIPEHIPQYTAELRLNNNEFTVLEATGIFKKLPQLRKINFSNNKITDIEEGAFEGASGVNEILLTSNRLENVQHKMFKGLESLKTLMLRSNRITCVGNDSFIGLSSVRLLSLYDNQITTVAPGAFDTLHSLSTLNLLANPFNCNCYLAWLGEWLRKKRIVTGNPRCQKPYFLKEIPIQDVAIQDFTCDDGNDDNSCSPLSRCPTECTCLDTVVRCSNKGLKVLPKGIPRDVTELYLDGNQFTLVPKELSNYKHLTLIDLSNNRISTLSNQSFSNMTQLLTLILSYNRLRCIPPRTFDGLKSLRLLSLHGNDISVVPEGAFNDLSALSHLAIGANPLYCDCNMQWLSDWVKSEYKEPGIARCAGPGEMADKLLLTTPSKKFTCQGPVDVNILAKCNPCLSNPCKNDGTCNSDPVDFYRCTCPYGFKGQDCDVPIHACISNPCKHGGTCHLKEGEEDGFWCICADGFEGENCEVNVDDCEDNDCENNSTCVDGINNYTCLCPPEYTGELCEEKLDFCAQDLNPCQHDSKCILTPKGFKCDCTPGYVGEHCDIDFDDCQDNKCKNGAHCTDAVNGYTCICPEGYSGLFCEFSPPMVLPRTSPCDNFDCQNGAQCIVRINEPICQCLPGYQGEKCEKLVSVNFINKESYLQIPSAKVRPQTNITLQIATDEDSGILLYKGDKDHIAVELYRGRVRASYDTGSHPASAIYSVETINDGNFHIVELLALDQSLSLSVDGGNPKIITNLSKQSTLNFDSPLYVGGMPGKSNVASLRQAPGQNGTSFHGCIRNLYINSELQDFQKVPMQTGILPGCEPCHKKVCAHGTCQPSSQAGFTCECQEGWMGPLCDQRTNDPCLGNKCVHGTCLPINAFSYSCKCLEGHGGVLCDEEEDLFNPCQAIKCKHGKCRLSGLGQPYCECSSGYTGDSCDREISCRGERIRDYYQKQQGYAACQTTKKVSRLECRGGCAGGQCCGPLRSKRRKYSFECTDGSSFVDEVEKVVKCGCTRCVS

Slit2 (from UniProt O94813)
pKd: 8.05
